Laboratory results reported in patent US8252764B2, “Compositions and methods of use of targeting peptides against placenta and adipose tissues” (priority 2000, dated 2012).

Experiments:
β5 integrin = target: T1, β5 integrin (Homo sapiens, UniProt P18084); test: Annexin V binding to GST-β5 integrin cytoplasmic domain (ELISA, competition); settings: binding dependent on the buffer: low in TBS, high in cytoplasmic buffer
T1 construct: Plates were coated with GST fusion proteins of the cytoplasmic domains of various integrins
T1 sequence (P18084 743-799 limits assumed): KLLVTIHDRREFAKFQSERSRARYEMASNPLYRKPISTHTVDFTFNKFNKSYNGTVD
Experimental: FIG. 29A. Competitive binding of Annexin V to β5 integrin with VISY peptide. Binding assays were performed by ELISA.
(§1) Competitive binding assays were performed to examine the binding of Annexin V to β5 integrin and the effect of the VISY peptide. Plates were coated with GST fusion proteins of the cytoplasmic domains of various integrins and Annexin V was added to the plates. Binding of Annexin V was determined using anti-Annexin V antibodies. […] Calcium was used because Annexin V activity has been reported to be modulated by calcium. Binding of Annexin V to GST-β5 was blocked by addition of the VISY peptide (FIG. 29A).
A reciprocal study was performed, using Annexin V to coat plates and adding GST fusion proteins of integrin cytoplasmic domains. Binding was assessed using anti-GST fusion protein antibodies. […] In some studies, calcium ion appeared to interfere with the binding interaction between GST-β5 and Annexin V, with decreased binding observed in the presence of calcium (not shown).

GST-β1 = target: T2, GST-β1 (Homo sapiens, UniProt P05556); test: Annexin V binding to GST-β1 integrin cytoplasmic domain (ELISA)
T2 construct: Plates were coated with GST fusion proteins of the cytoplasmic domains of various integrins
Experimental: as §1

GST-β3 = target: T3, GST-β3 (Homo sapiens, UniProt P05106); test: Annexin V binding to GST-β3 integrin cytoplasmic domain (ELISA)
T3 sequence (P05106 742-788 limits assumed): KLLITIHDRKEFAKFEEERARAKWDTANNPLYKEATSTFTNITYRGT
Experimental: as §1

placenta [1] = settings: GST conjugates-I; 1 mouse sc (predominantly) or iv ~every other day, day 4-day 17, 10 times, Total 800 μg
Source text: The CARAC peptide (SEQ ID NO:12), an adipose targeting peptide (FE, TREVHRS, SEQ ID NO:13) or fd-tet phage were used as non-placental targeting controls.

[2] = tested on: mouse villous yolk sac (vys); test: Peptide localization in placenta (immunohistochemistry, FITC immunofluorescence); assay type: in vivo; settings: 18 dpc pregnant mice, intravenous, 6 h
Experimental: Fusion and Recombinant Peptides Carboxyfluorescein (FITC)-conjugated [sequence] […] The FITC-peptide stocks were made by dissolving lyophilized peptides in DMSO to a concentration of 20 mM, after which the peptides were diluted to 1 mM with PBS (phosphate buffered saline) and aliquots were frozen until use. The [sequence] (SEQ ID NO:144) peptide and an unrelated control peptide, [sequence] (SEQ ID NO:87), fused in-frame with GST at the amino-terminus were purified to approximately 90% purity using the BugBuster GST Bind Kit (Novagen, Madison, Wis.). Purified peptides were buffer-exchanged into PBS using Centricon PL-10 columns (Millipore, Bedford, Mass.) and the aliquots were frozen until use. […]
Peptide Localization in Tissues Immunohistochemistry on sections of formalin-fixed, paraffin-embedded mouse tissue was performed as described (Pasqualini et al., 2000; Pasqualini and Ruoslahti, 1996): For phage-peptide immunolocalization, a rabbit anti-fd phage antibody (Sigma Chemicals, St. Louis, Mo.) was used at 1:1,000 dilution and detected with a secondary horseradish peroxidase (HRP)-conjugated antibody. For GST-peptide immunolocalization, a goat anti-GST antibody (Amersham, Piscataway, N.J.) was used at 1:1,000 dilution and detected with a secondary alkaline phosphatase (AP)-conjugated antibody. […]

placental transporter = test: Phage recovery from embryos (materno-fetal transfer); assay type: in vivo, mouse; settings: excess of co-injected peptide
Experimental: FIG. 4. The TPKTSVT (SEQ ID NO:5) peptide specifically binds a placental transporter. (A) Recovery of indicated phage from embryos carried by 18 dpc pregnant mice intravenously injected (tail vein) with 10^10 TU of the indicated phage 6 h prior to phage recovery or immunohistochemistry. […] TPKTSVT (SEQ ID NO:5) phage were administered alone (dark cross-hatched) or co-administered with control-GST (black) or TPKTSVT (SEQ ID NO:5) linked to GST (white bar). Shown are mean+/−SEM (standard error) from different embryos. (B-D) Anti-phage IMP immunohistochemistry (arrowheads) in paraffin sections of the vys from the corresponding mice, as indicated. Asterisks mark embryonic capillaries. Bar: 20 μm.
Phage Recovery Mouse placentas and embryonic livers were individually weighed, ground with a glass Dounce homogenizer and suspended in 1 ml of Dulbecco's Modified Eagle's Medium (DMEM) containing proteinase inhibitors (DMEM-prin—1 mM PMSF, 20 μg/ml aprotinin, and 1 μg/ml leupeptin). The suspension was vortexed and washed three times with DMEM-prin. […]
The TPKTSVT (SEQ ID NO:5) Peptide Binds to a Placental Transporter The TPKTSVT (SEQ ID NO:5) peptide localizes to the vys (FIG. 3), which is the tissue primarily responsible for materno-fetal transport in mice. […] Either TPKTSVT (SEQ ID NO:5)-phage or control phage were injected into pregnant mice and the recovery of phage from embryos was determined.

[3] = target: T4, FcRn/β2m receptor complex (Mus musculus, UniProt P01887+Q61559); test: Placental IgG transcytosis blocking; assay type: in vivo; settings: 18 dpc pregnant mouse, iv, 6 h
T4 construct: from tissue; host or cells: placenta (visceral yolk sac) of 18 dpc pregnant C57BL/6 mice, in vivo
T4 sequence (Q61559 22-365): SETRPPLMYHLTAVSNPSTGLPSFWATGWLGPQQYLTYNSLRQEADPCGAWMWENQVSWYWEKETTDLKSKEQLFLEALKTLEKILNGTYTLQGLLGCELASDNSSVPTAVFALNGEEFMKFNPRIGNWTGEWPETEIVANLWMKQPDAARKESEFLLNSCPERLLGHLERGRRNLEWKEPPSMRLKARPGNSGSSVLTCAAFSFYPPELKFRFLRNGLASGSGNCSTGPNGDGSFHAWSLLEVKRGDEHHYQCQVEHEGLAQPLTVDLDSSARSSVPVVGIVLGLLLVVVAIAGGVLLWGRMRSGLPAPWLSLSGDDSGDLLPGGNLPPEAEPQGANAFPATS
T4 sequence (P01887 21-119): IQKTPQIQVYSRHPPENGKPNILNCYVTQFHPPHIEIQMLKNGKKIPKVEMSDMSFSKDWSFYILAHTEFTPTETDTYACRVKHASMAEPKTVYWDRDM
Experimental: A 18 dpc pregnant mouse was intravenously injected with: (A) 100 mg of control GST fusion or (B) TPKTSVT (SEQ ID NO:5) linked to GST. The IgG distribution in the placenta after 6 h of peptide circulation was detected by anti-mouse IgG immunohistochemistry in paraffin sections.
For in vivo peptide homing validation, 10 μl of FTC-peptide stocks diluted 20-fold with PBS or, 250 μl of 5 mg/ml GST-peptides were injected. For phage homing competition and IgG transcytosis blocking experiments, 500 μl of 5 mg/ml GST-peptides were administered intravenously.
For GST-peptide immunolocalization, a goat anti-GST antibody (Amersham, Piscataway, N.J.) was used at 1:1,000 dilution and detected with a secondary alkaline phosphatase (AP)-conjugated antibody. For mouse IgG immunolocalization, the ARK Peroxidase Kit (DAKO, Carpinteria, Calif.) was used. All immunohistochemistry and FITC immunofluorescence images were captured using an Olympus IX70 microscope and digital camera setup.

placenta [4] = test: Peptide embryotoxicity in pregnant mice; assay type: in vivo, mouse; settings: subcutaneous injections from ~12 dpc
Source text: FIG. 7. TPKTSVT (SEQ ID NO:5) peptide inhibits mouse pregnancy and is teratogenic. (A) Pregnancy courses (representative from 5 independent experiments) in mice subcutaneously injected with the indicated phage or peptides were monitored by daily weighing of the mice upon each injection (arrows). (B) Appearance of a normally developed 20 dpc embryo (left) for control GST fusion treatment compared to a representative 20 dpc embryo (right) resulting from TPKTSVT (SEQ ID NO:5) linked to GST fusion treatment. A severely teratogenic phenotype is observed with the placental targeting fusion peptide. (C) and […]) Hematoxylin/eosin staining of 20 dpc paraffin-embedded placentas derived from mice injected for 7 days with (C) control GST fusion or (D) the TPKTSVT (SEQ ID NO:5) linked to GST fusion peptide. Note hemorrhage (black asterisks), necrosis (white asterisks), and fibrosis (arrowheads). Bar: 500 μm (50 μm for insets).
Peptide Embryotoxicity For peptide embryotoxicity studies, agents were injected at the following daily doses: GST-peptides 0.1 mg (˜3 nMoles), FITC-peptides 50 μg (˜30 nMoles),and phage-peptides 10″ TU. All agents were dissolved in PBS. Mice were injected subcutaneously in the back (5-10 injections per course).
The phage or fusion peptides were subcutaneously injected and the progression of pregnancy was compared with mice injected with control phage, control peptides, or saline. Multiple injections of the TPKTSVT (SEQ ID NO:5) peptide were administered, starting at mid-pregnancy (˜12 days postconception, dpc) in doses non-toxic to the mother.

T2 sequence (P05556 752-798 limits assumed): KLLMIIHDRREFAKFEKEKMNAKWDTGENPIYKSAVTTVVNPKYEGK

| Substance | binding of Annexin V to GST-β5 integrin (β5 integrin) | binding of Annexin V to GST-β1 integrin (GST-β1) | binding of Annexin V to GST-β3 integrin (GST-β3) | Peptide Effect on Embryo (placenta [1]) | Pregnancy Outcome (placenta [1]) | localization in placenta [2] | effect on materno-fetal transfer / vys uptake of TPKTSVT-phage on co-injection (placental transporter) | effect on placental transfer of IgG to the vys [3] | embryos on the 20th day of pregnancy (placenta [4]) | progression of pregnancy (weight gain) (placenta [4]; compared to control phage or GST-peptide) |
| --- | --- | --- | --- | --- | --- | --- | --- | --- | --- | --- |
| Annexin V: 36 kDa endogenous protein analog of the VISY peptide, GenBank GI-468888 | bound strongly | did not bind | did not bind |  |  |  |  |  |  |  |
| GST-PA: PA placental targeting peptide (TPKTSVT) fused to GST (glutathion S-transferase) |  |  |  | Pregnancy termination | No delivery or fetuses after 21 d | readily detectable in the apical cytoplasm of the vys | prevented internalization | blocked translocation of IgG through the placenta | Growth-retarded, dead, or partially resorbed embryos | diminished weight gain |
